System: MS2 coat protein
Experiment: apparent KD of MS2 coat protein; designed switch direction (-1 OFF switch, 1 ON switch): -1; higher = weaker reporter binding
Procedure, shortened: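 Apparent KD, taken as the median over clusters for each design, was obtained by curve-fitting normalised cluster fluorescence. Designed RNA switches had been transcribed on Illumina chips by stalled E. coli RNA polymerase and titrated with SNAP-549-labelled MS2 coat protein, doubling from 0.7 or 1.5 nM to 3 µM.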

[1] = Eterna round: R95, input ligand: FMN 200 uM
[2] = Eterna round: R95, input ligand: microRNA oligo, concentration not stated
[3] = Eterna round: R95, input ligand: none
[4] = input ligand: microRNA oligo, concentration not stated

Sequence | apparent KD of MS2 coat protein (input ligand: FMN 200 uM) [nM] | apparent KD of MS2 coat protein (input ligand: none) [nM] | apparent KD of MS2 coat protein [1] [nM] | apparent KD of MS2 coat protein [2] [nM] | apparent KD of MS2 coat protein [3] [nM] | apparent KD of MS2 coat protein [4] [nM]
CCCUCACAUGAGGAUCACCCAUGUAAGGAUAUCUUCGAUUUGACGUGGUUGGAUGCGAAGAGAAGGUACAAGGC [jl-ex1-4.72 ViennaUCT mod] (Eterna round: R97, puzzle: Exclusion 1) | 35.9 | 20.6 | – | – | – | –
AAAAGAAUAGGAUAUACAUGAGGAUCACCCAUGUGAGGGCACGGCCGGCGCGGGCCCGGUAGAAGGAUUCAAAA [Exc;s3-X] (puzzle: Exclusion 3) | – | – | 23.1 | 22.5 | 25.6 | –
GUGAUCUAUCAUGUAAUGAACAUGAGGAUCACCCAUGUAGACAAGUUUUUUGCUCGUCUCAUAAUAAGAUAGAUCAC [Antenna 17 - Jieux - Sensor, turn-off variant 1] (Eterna round: R97, puzzle: Sensor, turn-off variant 1) | 17.5 | 19.3 | – | – | – | –
ACUAGAUGAGGAUAUGCAUAUUUUCGUGUUCUUCUAGAUUAACAUGAGGAUCACCCAUGUAGAAGGCGUCUGGC [Exclusion 2 - 20] (puzzle: Exclusion 2) | – | – | – | 18 | – | –
AUAGGAGGAGGAUAUGAAACCGAUAACAUGAGGAUCACCCAUGUCGAAAGAACUUUCCGGUCAGAAGGCCUGAUGU [Eternabot (L2) Solution 60] (Eterna round: R97, puzzle: Exclusion 5) | 16.3 | 25.1 | – | – | – | –
AAACGCUGAGGAUAUGCGCCGAGGCACAUGAGGAUCACCCAUGUGACCUCACUGCCUUGAGCAGAAGGCAGAAAAU [Vezaatinxe] (puzzle: Exclusion 5) | – | – | 137 | 56.4 | 53 | –
AAGAAGAAGUAAGGAUAUGAAGAUUUGGUGAUGACAUGAGGAUCACCCAUGUGAAAACAAUAAGAUCAGAAGGUAUAAGAAGAA [AK ExNG2-2.2] (Eterna round: R96, puzzle: Exclusion NG 2) | 104 | 112 | – | – | – | 61.6
AGAGACCGAGGAUAUACAUGAGGAUCACCCAUGUUGUUAGGUGAUGGAUUAAUGAUUGGUAGAAGGCGGAGAGA [Seems to work] (Eterna round: R97, puzzle: Exclusion 3) | 340 | 227 | – | – | – | –
CCAGUGUAAGGAUAUGACAAUGGUAUCUUCGGAUACCAUUGUCAGAAGGUACAUGAGGAUCACCCAUGUAACAC [Ex4-3: 12] (puzzle: Exclusion 4) | – | – | – | 15.3 | – | –
AUAUUUAAGCUUUUGUGAAACAUGAGGAUCACCCAUGUCCUCAUACCUGGACAUUUAAGUCUAGGAGCUCGUCUUAU [Last end dangle 1] (Eterna round: R97, puzzle: Sensor, turn-off variant 1) | 518 | 558 | – | – | – | –
GAGCUAUGAGGAUAUGCAUAUAUGCGGUUUCGUGUGGUACUACAUGAGGAUCACCCAUGUAGAAGGCGUGGCUG [JL-ex2-2.06 mat747 mod] (puzzle: Exclusion 2) | – | – | – | 14 | – | –
ACAGUGUUAGGAUAUCUGAGAGUUAGUCUCGACUAGUCGAAGGAGAAGGAACAUGAGGAUCACCCAUGUAGAUC [EX4 #77] (Eterna round: R97, puzzle: Exclusion 4) | 144 | 35.8 | – | – | – | –
UAUUAAACAAGCAGGUCCCACAUGAGGAUCACCCAUGUGCUCGUCUUAUAACGAUCUGUGGGAAAACCUACGGAUCG [Elimod 18 - Jieux - Sensor, turn-off variant 1] (Eterna round: R97, puzzle: Sensor, turn-off variant 1) | 37.7 | 45.1 | – | – | – | –
AAGUUGCGAGGAUAUCGUAAGAUGGACAUGAGGAUCACCCAUGUGGUGCUUUUUUAUUGGCGAGAAGGCGCAUAAA [Zaiseren] (puzzle: Exclusion 5) | – | – | 134 | 166 | 164 | –
ACCUCACAUGAGGAUCACCCAUGUCAGGAUAUUCAAACAGGCGGAACUCCGCCUUCUCGAAGAAGGGACAUUAA [Ontebileza] (puzzle: Exclusion 1) | – | – | – | 16.6 | – | –
UUAUACGCUGAGGAUAUCAUCACUGAGAGGUGAUGAGAAGGCGGUACAUGAGGAUCACCCAUGUCUAUGGGCAG [Ex-6 Malc#21] (puzzle: Exclusion 6) | – | – | – | 187 | – | –
CCGGAAAUGAAGGAUAUAGGUGUCGAUAGACUCCUAGAAGGUCAUACAUGAGGAUCACCCAUGUGUCCUACCGG [Fiskers Ex 6 - 76] (puzzle: Exclusion 6) | – | – | – | 15.6 | – | –
ACGUGAUAUCUGUCGGUGGACAUGAGGAUCACCCAUGUGAGCUUUUUGCUCGUCUUAUAACCCGAUGACAGACCUUC [Anorin] (puzzle: Sensor v3, turn-off variant 1) | – | – | 14.2 | 266 | 13 | –

Sequence | apparent KD of MS2 coat protein (input ligand: FMN 200 uM) [nM] | apparent KD of MS2 coat protein (input ligand: none) [nM] | apparent KD of MS2 coat protein [1] [nM] | apparent KD of MS2 coat protein [2] [nM] | apparent KD of MS2 coat protein [3] [nM] | apparent KD of MS2 coat protein [4] [nM]
CGAUGUGGAGUGAGGAUAUCGUGUUCGAAAGAACGUGAGAAGGCACAUGAGGAUCACCCAUGUGAUUCAUGUCG [Omei Ex4B A7] (Eterna round: R97, puzzle: Brourd's mod of Exclusion 4) | 40.9 | 26.2 | – | – | – | –
CUCUAGUCAGGAUAUUAGUUGCCGCCUGGACACAAGCGGCAUGAGAAGGGACUUGAGGAUCACCCAAGUAAAAG [Tibela] (Eterna round: R97, puzzle: Exclusion 4) | 2850 | 393 | – | – | – | –
CCGACCCUAGGAUAUUGUACUGCUGACAUGAGGAUCACCCAUGUAUGUUAACUCGGCCGACGAGAAGGAGGCGAAA [BotMod 5 - Jieux - Exclusion 5] (Eterna round: R97, puzzle: Exclusion 5) | 21.7 | 20.3 | – | – | – | –
UAAAAGAUGGACGAACCACAUGAGGAUCACCCAUGUCGAGGUUAGGAUAUGUCGUCCAUGGGACCACAGAAGGGACUGAAGACU [Teraqu] (Eterna round: R96, puzzle: Exclusion NG 3) | 16 | 20.2 | – | – | – | 11.3
CCAAACAGAGGAUAUGCGAAUAAAUAAAACUUUUUUUUUUAACAUGAGGAUCACCCAUGUAGAAGGCUGAAACC [Ex2 #41] (Eterna round: R97, puzzle: Exclusion 2) | 29.3 | 27.6 | – | – | – | –
AGUACUAACACGAAGGUGUUAGUACAAUAAGCUUGUGAAACAUGAGGAUCACCCAUGUCCUCAUAAGCUCGUCUUAU [salish99_TOv2_r3_033] (puzzle: Sensor v3, turn-off variant 2) | – | – | 17.5 | 702 | 17.6 | –
UAGUAUCUGCAGGAUAUCAGUGGAAAACACGUAUGAGAAGGGCAGACAUGAGGAUCACCCAUGUAAAGGGUCCG [BotMod 10 - Jieux - Exclusion 6] (Eterna round: R97, puzzle: Exclusion 6) | 541 | 173 | – | – | – | –
AGUCCUGGAGUUAGGAUAUGGAGUAUCGCUGCGCUUCAGAAGGGACUUGAGGAUCACCCAAGUAGCCGUGAGGG [salish99_bmod_ex4_r4_006] (Eterna round: R97, puzzle: Brourd's mod of Exclusion 4) | 82.9 | 60.2 | – | – | – | –
GUGUUACAUGAGGAUCACCCAUGUGAGGAUAUCAUGCUUCGUAGUAAACUACGAAGUGUGAGAAGGCAUAUGAC [Omei Ex1 E4] (Eterna round: R97, puzzle: Exclusion 1) | 50.7 | 56.5 | – | – | – | –
AUUUAAACAUAGGAUAUCGAAUUUAUUAUUUAACGAGAAGGAUGAACAUGAGGAUCACCCAUGUGGUAUCAUGG [Mat - Exclusion 6 - JL Mod - D25] (puzzle: Exclusion 6) | – | – | 693 | 815 | 260 | –
CAGUACUACAAGCUUAGGGACAUGAGGAUCACCCAUGUUCGUCUUAUUGAUCUAGGUACGCUGACGUACCUAGAUCU [JL-sv1-2.12 Brourd mod] (puzzle: Sensor v3, turn-off variant 1) | – | – | 15.7 | 29.9 | 15 | –
GCAAGAAUAGGAUAUACACCAUGCCAGCUUCUAUACAACGCACAUGAGGAUCACCCAUGUAGAAGGGUUCUCUG [Exclusion-2-#12] (Eterna round: R97, puzzle: Exclusion 2) | 225 | 262 | – | – | – | –
AGUAGGUCUACCUUGGUGGAUCUGCAUUAUGCAAGUGAUACAUGAGGAUCACCCAUGUCCUCAUUUGCUCGUCUUAU [JL turnoff v2 99.24] (puzzle: Sensor v3, turn-off variant 2) | – | – | 17.3 | 242 | 16.1 | –
GAGUAGGGAGGAUAUGCAGAAUGACUCGUAAGUAAGAUAGGACAUGAGGAUCACCCAUGUAGAAGGCUCUGAUG [jun14#1] (Eterna round: R97, puzzle: Exclusion 2) | 46.3 | 42 | – | – | – | –
GGAGCGGAAGGAUAUGCUGCGGGAUUGCAUGGAAAGAAAAUACAUGAGGAUCACCCAUGUAGAAGGUCCGUGAA [Uslequ] (puzzle: Exclusion 2) | – | – | – | 24.8 | – | –
AAGAAACGAGGAUAUACAGUUGAGUGAGGGAUGUUAGUGUUACAUGAGGAUCACCCAUGUAGAAGGCGUGAGAG [JR_Exclu2_Sub091] (puzzle: Exclusion 2) | – | – | 66.4 | 32.2 | 36.2 | –
GAUUAUGCGAGCUUUAGGGACAUGAGGAUCACCCAUGUUCGUCUUAUUAGUCUGGAUGCACUGACAUACCUAAAUCU [JMF 81] (puzzle: Sensor v3, turn-off variant 1) | – | – | 18.4 | 25.2 | 19.1 | –

— the supplement of paper PMC9170038
